Measurements published in the supplement of paper PMC9170038.

Test system: MS2 coat protein
Assay: apparent KD of MS2 coat protein; designed switch direction (-1 OFF switch, 1 ON switch): -1; higher = weaker reporter binding
Summary of the method: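 Apparent KD, taken as the median over clusters for each design, was obtained by curve-fitting normalised cluster fluorescence. Designed RNA switches had been transcribed on Illumina chips by stalled E. coli RNA polymerase and titrated with SNAP-549-labelled MS2 coat protein, doubling from 0.7 or 1.5 nM to 3 µM.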

[1] = Eterna round: R95, input ligand: microRNA oligo, concentration not stated
[2] = input ligand: microRNA oligo, concentration not stated
[3] = Eterna round: R95, input ligand: FMN 200 uM
[4] = Eterna round: R95, input ligand: none

Sequence	apparent KD of MS2 coat protein (input ligand: FMN 200 uM) [µM]	apparent KD of MS2 coat protein (input ligand: none) [µM]	apparent KD of MS2 coat protein [1] [µM]	apparent KD of MS2 coat protein [2] [µM]	apparent KD of MS2 coat protein [3] [µM]	apparent KD of MS2 coat protein [4] [µM]
UUCACAUGGACAUAAGAUCACAUGAGGAUCACCCAUGUGAAUAACAAGCUUUUUGUUCGUCUUAUGUCCAAUAAUAG [Stov1/14-B2] (Eterna round: R97, puzzle: Sensor, turn-off variant 1)	0.0137	0.0135				
UUCACAUGGACAUGAGAUCACAUGAGGAUCACCCAUGUGAAUAACAAGCUUUUUGUUCGUCUUAUGUCCAAUAAUAA [Stov1/14-D1] (Eterna round: R97, puzzle: Sensor, turn-off variant 1)	0.0141	0.0131				
UUCACGUCAGGAUAUCCAAAGUUCCGAAAUAACGGUACUUUGGAGAAGGGACAUGAGGAUCACCCAUGUCCUCG [LRO-Excl4-17-Nando 22 Mod] (Eterna round: R97, puzzle: Exclusion 4)	0.0403	0.022				
UUCAUGUUAGGAUAUUCCGCCACAGAGAAAGACUGUGGAAUGAAGAAGGGACAUGAGGAUCACCCAUGUUCCAA [EX4 A.5] (Eterna round: R97, puzzle: Exclusion 4)	0.0142	0.0143				
UUCCUACAUGAGGAUCACCCAUGUCAGGAUAUCUCCUCACUGCGCUUGCGCAGUGAAUAGAGAAGGGACAGGCU [JL ViennaUCT Aner mod 1] (puzzle: Exclusion 1)			0.0159			
UUCGGCGCAGGAUAUACAGUUUUGUGUUGAAUCGGCGCGAAACAUGAGGAUCACCCAUGUAGAAGGGUGUUGAA [-24.2, -22.3 kcal, A 27%] (Eterna round: R97, puzzle: Exclusion 2)	0.736	1.22				
UUCGUGCAGCUUUGCUGUACGCGUACAUGAGGAUCACCCAUGUAGGAUAUGGUACGCUUUGCGUGCUAGAAGGAUAUGGAGAGG [JL EXNG3 1.34] (Eterna round: R96, puzzle: Exclusion NG 3)	0.0629	0.0376		0.0287		
UUCGUGCAGCUUUGCUGUACGCGUACAUGAGGAUCACCCAUGUAGGAUAUGGUAGGCAAAGCUUACUAGAAGGAUAUGGUGAGC [Mat - Exclusion NG 3 - Mod of JL - D79] (Eterna round: R96, puzzle: Exclusion NG 3)	0.0303	0.0214		0.0155		
UUCGUGCAGCUUUGCUGUACGCGUACAUGAGGAUCACCCAUGUAGGAUAUGGUAGGCUUUGCUUACUAGAAGGAUAGUGUGAUC [JL EXNG3 1.30] (Eterna round: R96, puzzle: Exclusion NG 3)	0.137	0.0887		0.123		
UUCUUGCAAGGAUAUGAUUUAAGUAACAUGAGGAUCACCCAUGUUUUUCCGUUGUUAUGUUCAGAAGGUGCGUGAU [JR_E5_Sub021] (puzzle: Exclusion 5)			0.0542			
UUCUUGGCAGGAUAUGCUUUUUUAGACAUGAGGAUCACCCAUGUGAUGAUUAUUGGUUUUGCAGAAGGGCCUUAAU [JR_E5_Sub041] (puzzle: Exclusion 5)			0.0494			
UUGAAGUAAGGAUAUACAUGAGGAUCACCCAUGUAAAGGAAAGUAAUGGGAGUAGGAAGUAGAAGGUACGAGGA [JR_Exclu3_Sub062] (puzzle: Exclusion 3)			0.0666		0.049	0.134
UUGACCCACGUCAGGAUAUCAAGAAAAGAGGCUCUUGAGAAGGGACAUGAGGAUCACCCAUGUAAGAAAUAAAU [Qumabibe] (puzzle: Brourd's mod of Exclusion 4)			0.0284		0.101	0.0346
UUGAUACAUACCUCCAUAAACAUGAGGAUCACCCAUGUAAGUGAGGAUAUAGAUUGAUUAGUAUACUAGAAGGCACUUAGAUAU [JR_ExcNG3_Sub044] (Eterna round: R96, puzzle: Exclusion NG 3)	0.0116	0.0133		0.00891		
UUGAUGUCAUCAGGAUAUAGUAUUUAAGACAUAUAUUUUUUCAAACAUGAGGAUCACCCAUGUCGCUAGAAGGGAUUAUAGAUU [JR_ExcNG2_Sub082] (Eterna round: R96, puzzle: Exclusion NG 2)				0.0296		
UUGCAGUCGUCAGGAUAUAGUAUUACGGCCUUUCAUUUCUUCAUACAUGAGGAUCACCCAUGUCGCUAGAAGGGCUUCUCGCUU [salish99_ExNG2_r04_109] (Eterna round: R96, puzzle: Exclusion NG 2)	0.0153	0.0176		0.0146		
UUGCCACAUGAGGAUCACCCAUGUGAGGAUAUGGCCCGCCCGGCGUGUGCUGGUUUUGUCAGAAGGCGCGUGGG [salish99_ex1_r4_029] (Eterna round: R97, puzzle: Exclusion 1)	0.0524	0.0279				
UUGCCACAUGAGGAUCACCCAUGUGAGGAUAUGGCCUGUUUGGAGUGUGCUGGUUCUGUCAGAAGGCGCGUGGG [salish99_ex1_r4_033] (Eterna round: R97, puzzle: Exclusion 1)	0.0495	0.0336				
UUGCUCGUCUUGCUUCCUAACAUGAGGAUCACCCAUGUCGACGGUGAGACGCAAGAGCCAUCUCGCCGUUGAUCGUC [Eternabot (Original) Solution 4] (Eterna round: R97, puzzle: Sensor, turn-off variant 1)	0.134	0.159				
UUGGUGUCAGGAUAUGCACAGGUCGCACAAAUUGCAGCCUAGCAGAAGGGACAUGAGGAUCACCCAUGUACUCU [EX4 B.21] (Eterna round: R97, puzzle: Exclusion 4)	0.03	0.0188				
UUGGUGUCAGGAUAUGCUUAAUAUAUUUUAUUAUAAUAUAUACAUGAGGAUCACCCAUGUAGAAGGGACAUUGU [LRO-Excl2-07-Fireball XL5] (Eterna round: R97, puzzle: Exclusion 2)	0.0302	0.0458				
UUGUAGUUUGUAGGAUAUGGUUAUGUAUGUAAUCUAGAAGGACAUGAGGAUCACCCAUGUGGAGGUAAGUUGGGAAGAAGUAAU [random1] (Eterna round: R96, puzzle: Exclusion NG 1)	0.0556	0.0564		0.0308		
UUGUGCACGCUGCGGUCCUACAUGAGGAUCACCCAUGUGGUCUGGUGGCGUGGGUCACCGGACUUGGCUCGUCUUGA [salish99_S_TOV1_R5_061] (Eterna round: R97, puzzle: Sensor, turn-off variant 1)	0.0527	0.0578				
UUGUUACAUGAGGAUCACCCAUGUGAGGAUAUGAGUCAGUCACGGUGACGUGGCUGACUCAGAAGGCACAAAGG [Mat - Exclusion 1 - JL Mod - D40] (Eterna round: R97, puzzle: Exclusion 1)	0.31	0.12				
UUGUUACGAUUAGGAUAUUAUAGAUUGAAUAGUAUGAUUUACAUGAGGAUCACCCAUGUUACAUUUAAGAAGGAAUCGAAUUAU [JR_ExcNG2_Sub089] (Eterna round: R96, puzzle: Exclusion NG 2)				0.0161		
